# Results taken from the supplement of paper PMC12042874.
# ± gives the uncertainty stated by the source.
# Assay: amyloid nucleation score (Sup35N fusion, yeast selection) (log enrichment); library NNK3; higher = more nucleation; inactive = no reads after selection
# Summary of the method: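 For the nucleation score, DiMSum gave the log enrichment of output over input reads, centred on the mode score of non-aggregating sequences. Psi-negative yeast expressing Sup35N fused to peptides of 20 random codons were induced with 100 μM copper sulfate for 24 hours and grown 7 days at 30°C on medium lacking adenine and uracil. Input and output plasmid inserts were Illumina-sequenced, and sequences with under 100 input reads were excluded.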
row,Substance,amyloid nucleation score
1,FFEWRTGLFVLWLSEVTSLM,inactive
2,FFGWSSRVSSACAVPVEINS,inactive
3,FFILFMRRLDW,0.323 ± 0.22
4,FFIYKFYPFRGISLSAVRIR,inactive
5,FFKYYG,inactive
6,FFLSTTGSMPHFPFKVSSSF,0.088 ± 0.24
7,FFLVLNSACME,0.058 ± 0.36
8,FFNDSYIRYFSCM,0.02 ± 0.77
9,FFNSVMIYGWS,0.07 ± 0.3
10,FFSAFID,inactive
11,FFSISFS,inactive
12,FFSLLT,inactive
13,FFSTLVYNRRIVCWFRSGR,-1.49 ± 2.5
14,FFVFSRLVYPWCGMFFLSLK,inactive
15,FFVWKHLLMRFRYALACTLM,inactive
16,FGAKR,0.909 ± 0.18
17,FGLEFWTYTSIRFWLEYKPH,0.972 ± 0.099
18,FGMSILVFFTVDRSLET,inactive
19,FGRIGSYWTMVQ,inactive
20,FGSFQMGLWFVMNEVDQVKG,inactive
21,FGTHFIESSNVNNNTPVVSP,inactive
22,FGTNVPISNLIKEVLYIRYS,inactive
23,FGYHYWVSATCMSLALSWLT,inactive
24,FGYNWDCCRYMHDPRGLVTT,inactive
25,FHCSDYADVHSILTLLLVHT,inactive

row,Substance,amyloid nucleation score
1,FHQLGICKFKA,-0.387 ± 0.88
2,FHTFSVCVGRGTMYYRALEE,0.277 ± 0.23
3,FHTSKLHRFPHLK,inactive
4,FIIAWWCNVSVDKTSERHYV,1.55 ± 0.079
5,FIIISIYGCIIVRWTKRAWG,inactive
6,FILQGFPE,inactive
7,FILSVWLYTS,inactive
8,FIPYYRCDQMLSGILVRFFS,inactive
9,FIRVFYSCIYVDKVLCEGRL,1.5 ± 0.11
10,FISDRQSASYPWVQFWPE,0.206 ± 0.7
11,FISSLSRSFL,inactive
12,FITGCSYVAYFMIAA,inactive
13,FIVPWLFICRVVRNCVDSAV,inactive
14,FIVVQGIAPCGFTS,inactive
15,FIYNVDVHCASSVNIGWGQK,2.83 ± 0.08
16,FKCAADCVFLALYYMDGWKS,inactive
17,FKLDSMCRLKRAAN,inactive
18,FKRGTCISSSNYNIYCYWKC,inactive
19,FKRLLARV,-0.362 ± 0.98
20,FKSLLSRISHFKFASGWYVH,inactive
21,FKVSFIWCCNFKMSCGAYER,0.446 ± 0.4
22,FLAMSSASMFRYFKPVASSE,2.91 ± 0.066
23,FLAVLNLPGCGMDMRNLINL,inactive
24,FLCIVSAYF,inactive
25,FLCLSKGTGVAISKMSQN,inactive

row,Substance,amyloid nucleation score
1,FLCMLVYI,1.23 ± 0.11
2,FLDFQLFLCTHYLGRI,inactive
3,FLDSLYKRGCNKFGQLWR,inactive
4,FLIKNMY,inactive
5,FLNCSSQKNATPHILFNGGM,inactive
6,FLNIGYLNSRYNFLRNSVLV,inactive
7,FLNSKGFTIAGYKNSKWGSR,inactive
8,FLPDSFESYEKEVHTMDESS,inactive
9,FLRCIC,inactive
10,FLRFWARSNPGTWLIVHGMG,-0.69 ± 1.4
11,FLRGLVK,inactive
12,FLRKFRLTLIYVTRASWLGG,inactive
13,FLRKGYFNSTSFTDALGGNL,-1.26 ± 1.8
14,FLRMHVRGFDTFRARQ,inactive
15,FLRRLSRKTKDMDSSRGMCC,inactive
16,FLSFTSRNLTYFCDCRFSLI,inactive
17,FLSVECLRAMTWCQLLDAGS,inactive
18,FLTAKKSEFERTLEFRLWWC,inactive
19,FLTVIGLYNLSDGPCCK,1.79 ± 0.06
20,FLTWRIGVVS,inactive
21,FLVICCCWD,2.08 ± 0.062
22,FLWLKHSQSHVRERL,inactive
23,FLWMSAEGLSK,inactive
24,FLYDVFPSPGLMMVLWFGLC,inactive
25,FMEYFTCGV,inactive

row,Substance,amyloid nucleation score
1,FMGDRLKEAGDRTLYDQKVG,inactive
2,FMGFFYNFYVPKLKSSVHNE,0.303 ± 0.34
3,FMGGIFAVFTRILVHSIWYS,inactive
4,FMGSGQVVNTRASGIMGLFF,inactive
5,FMISDNMAQCMERGYRAEVF,inactive
6,FMIYYLGLFRR,inactive
7,FMKCDTTSAAGCRRSSSRDK,inactive
8,FMLRFPLPPSKIHVRYMPTC,inactive
9,FMSSFISMYFASAFHYAMWH,inactive
10,FMVILMRAISMSKIKSILYH,inactive
11,FMYVRCQIVADTCFGIASWG,-0.032 ± 0.82
12,FNANI,0.12 ± 0.34
13,FNDLSAVFYLQGLKLDL,inactive
14,FNFNLKFKTFGKMYFTGPES,0.628 ± 0.25
15,FNHSRYDSVFWFVVHPSYEG,inactive
16,FNIHSQIAFLFLCGYLESTV,1.94 ± 0.075
17,FNRLDTNTTSGPRTGTTLEM,inactive
18,FNVYMIITNFLDPL,2.64 ± 0.062
19,FNYMCNLNVCRNIILMTLEL,2.69 ± 0.07
20,FPCSGPACYIYYTLHGLSLG,inactive
21,FPFKV,inactive
22,FPIDC,0.082 ± 0.58
23,FQESVIWKVYRNNNYRSLTV,inactive
24,FQNDDVTS,inactive
25,FQPSSASPIGWIGMSAFDSW,inactive

row,Substance,amyloid nucleation score
1,FRFASYRSYLIVMP,inactive
2,FRFSMSL,inactive
3,FRFTFLMRNML,inactive
4,FRFWPFSPICNWY,inactive
5,FRFYLCDDFMCNVLHYQPRN,3.19 ± 0.073
6,FRILIIFSVYGSMISHLP,inactive
7,FRPAN,-0.286 ± 0.78
8,FRQLQGTSMLYLATPWS,inactive
9,FRSKLTW,inactive
10,FRVLYDCGTGYAVCYAMEVK,inactive
11,FRVVNMSWCAPNLTLRFKYL,inactive
12,FRYLNLKKDD,inactive
13,FRYPLNYN,inactive
14,FRYVHIHLRYQPGF,inactive
15,FSALMIY,0.015 ± 0.32
16,FSCIKTRMVGYSLRLNQFVD,inactive
17,FSFNAG,inactive
18,FSFPMEIWKGFVYRTA,3.16 ± 0.081
19,FSILAFMSDLLS,inactive
20,FSIPCDFDDNFATQELS,inactive
21,FSLFLTLFHFFHTRLAACLL,inactive
